Laboratory results taken from article PMC6249866 (Molecular Biology of the Cell, 2018).

Biological target: T1, Asl-A-His6 (WT; Asterless amino acids 1-374) (Drosophila, UniProt Q9VNE4 1-374)
T1 sequence (looked up): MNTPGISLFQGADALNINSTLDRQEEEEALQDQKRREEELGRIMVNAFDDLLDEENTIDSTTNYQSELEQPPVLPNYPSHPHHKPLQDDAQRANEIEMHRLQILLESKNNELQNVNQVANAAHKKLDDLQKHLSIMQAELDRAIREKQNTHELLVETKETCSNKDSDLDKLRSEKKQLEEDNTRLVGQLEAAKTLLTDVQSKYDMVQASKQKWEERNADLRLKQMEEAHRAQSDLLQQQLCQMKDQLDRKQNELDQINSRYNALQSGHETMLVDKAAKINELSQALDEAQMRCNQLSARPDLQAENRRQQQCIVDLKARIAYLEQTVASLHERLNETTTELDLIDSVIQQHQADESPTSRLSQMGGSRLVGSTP
Assay: pull-down

B1: GST-PB1-PB2 (Plk4 amino acids 382-602) (domain or fragment, Drosophila, UniProt O97143 382-602, looked up)
chain: DRISVPPLNTKRLLPTRYKTKNAIMSILRNGEVVLEFLKFRPTYNEDRINDICRISDDGQRIIIYQPDPGRGLPVREQPPDLQIPSGDCVYNYDNLPSKHWKKYIYGARFVGLVKSKTPKVTYFSTLGKCQLMETMTDFEIRFYSGAKLLKTPSEGLKVYDRNGMLLSDYSCSESRSLIEHGNECFTHCVNISNALEVAQTKDNSCFPVTIGRRPITDVQP
  binding result: binds
